Reference: patent publication US6043072, “Nucleic acids encoding Taxus geranylgeranyl diphosphate synthase, and methods of use” (Washington State University Research Foundation, dated 2000)

Molecular target: the molecule itself
Test: gel permeation chromatography on calibrated Superdex G-75 (about 60,000 against the predicted monomer of 32.1 kDa) with SDS-PAGE; self-association (homodimer)
Description: After centrifugation as above, the cell pellet was resuspended in 80 ml of ice cold 50 mM Tris (pH 7.6) containing 10% (v/v) glycerol, 10 mM MgCl_2, 5 mM DTT, and 1 μg/ml leupeptin (extraction/assay buffer). All subsequent operations were conducted at 0–4° C. Cells were disrupted with 150 ml glass beads using a Biospec Bead-Beater operated at 90 V for 5 min, and the resulting debris was removed by centrifugation at 3000 g for 20 min to yield a supernatant that was further clarified by centrifugation at 31,000 g for 20 min. The resulting supernatant was used as the enzyme source.

B1: T. canadensis GGPP synthase Tr^295 truncated protein (enzyme)
chain: FDFNEYMKSKAVAVDAALDKAIPLEYPEKIHESMRYSLLAGGKRVRPALCIAACELVGGSQDLAMPTACAMEMIHTMSLIHDDLPCMDNDDFRRGKPTNHKVFGEDTAVLAGDALLSFAFEHIAVATSKTVPSDRTLRVISELGKTIGSQGLVGGQVVDITSEGDANVDLKTLEWIHIHKTAVLLECSVVSGGILGGATEDEIARIRRYARCVGLLFQVVDDILDVTKSSEELGKTAGKDLLTDKATYPKLMGLEKAKEFAAELATRAKEELSSFDQIKAAPLLGLADYIAFRQN
  binding result: binds
